Measured values from publication PMC4807051, “Determinants of Cofactor Specificity for the Glucose-6-Phosphate Dehydrogenase from Escherichia coli: Simulation, Kinetics and Evolutionary Studies” (PLoS ONE, 2016).

What was measured:
[1] = test system: T1, NC(=O)c1ccc[n+]([C@@H]2O[C@H](COP(=O)(O)OP(=O)(O)OC[C@H]3O[C@@H](n4cnc5c(N)ncnc54)[C@H](OP(=O)(O)O)[C@@H]3O)[C@@H](O)[C@H]2O)c1; experiment: purified protein; assay type: biochemical, Escherichia coli; details: 25°C, apparent
T1 construct: full length; N-terminal 6xHis tag cut by TEV protease (Gly-His left before Met1); plasmid pET-TEV-EcG6PDH from pETG6PDH

[2] = test system: T2, NC(=O)c1ccc[n+]([C@@H]2O[C@H](COP(=O)(O)OP(=O)(O)OC[C@H]3O[C@@H](n4cnc5c(N)ncnc54)[C@H](O)[C@@H]3O)[C@@H](O)[C@H]2O)c1; experiment: purified protein; assay type: biochemical, Escherichia coli; details: 25°C, apparent
T2 construct: full length; N-terminal 6xHis tag cut by TEV protease (Gly-His left before Met1); plasmid pET-TEV-EcG6PDH from pETG6PDH

## EcG6PDH; glucose-6-phosphate dehydrogenase from Escherichia coli (Escherichia coli K-12)
[1]; near-saturating G6P
  Km: 7.5 ± 0.8 µM
  kcat: 174 ± 2 s⁻¹
  kcat/Km: 2.32e+07 ± 2.4e+06 M⁻¹ s⁻¹
[2]; near-saturating G6P
  Km: 5.09 ± 0.4 mM
  kcat: 288 ± 5 s⁻¹
  kcat/Km: 60000 ± 4000 M⁻¹ s⁻¹

## EcG6PDH; glucose-6-phosphate dehydrogenase from Escherichia coli (Escherichia coli K-12; K18A)
[1]; near-saturating G6P (40 mM)
  Km: 99 ± 3 µM
  kcat: 143 ± 1 s⁻¹
  kcat/Km: 1.4e+06 ± 40000 M⁻¹ s⁻¹
[2]; near-saturating G6P (40 mM)
  Km: 2.477 ± 0.26 mM
  kcat: 109 ± 2 s⁻¹
  kcat/Km: 40000 ± 4000 M⁻¹ s⁻¹

## EcG6PDH; glucose-6-phosphate dehydrogenase from Escherichia coli (Escherichia coli K-12; K18A/R50A)
[1]; near-saturating G6P (40 mM)
  Km: 17696 ± 1453 µM
  kcat: 185 ± 7 s⁻¹
  kcat/Km: 10000 ± 900 M⁻¹ s⁻¹
[2]; near-saturating G6P (40 mM)
  Km: 11.736 ± 0.804 mM
  kcat: 165 ± 4 s⁻¹
  kcat/Km: 10000 ± 700 M⁻¹ s⁻¹

## EcG6PDH; glucose-6-phosphate dehydrogenase from Escherichia coli (Escherichia coli K-12; K18T)
[1]; near-saturating G6P (15 mM)
  Km: 243 ± 5.3 µM
  kcat: 282 ± 1 s⁻¹
  kcat/Km: 1.1e+06 ± 30000 M⁻¹ s⁻¹
[2]; near-saturating G6P (15 mM)
  Km: 8.352 ± 0.307 mM
  kcat: 298 ± 4 s⁻¹
  kcat/Km: 30000 ± 1000 M⁻¹ s⁻¹

## EcG6PDH; glucose-6-phosphate dehydrogenase from Escherichia coli (Escherichia coli K-12; R50A)
[1]; near-saturating G6P (50 mM)
  Km: 382 ± 48 µM
  kcat: 189 ± 5 s⁻¹
  kcat/Km: 500000 ± 60000 M⁻¹ s⁻¹
[2]; near-saturating G6P (50 mM)
  Km: 14.662 ± 2.176 mM
  kcat: 171 ± 10 s⁻¹
  kcat/Km: 10000 ± 1000 M⁻¹ s⁻¹
